A word on the stoichiometry N: it is a count of units in the complex or per binding partner.

For one substance, stoichiometry N results are on record in publication PMC8008698.

The assay addresses SARS 2-Helix (single-chain fusion core of SARS-CoV spike protein: HR1, 22-amino acid linker, HR2) (SARS coronavirus GZ02). The assay can be described thus: crystal structure.

In turn, “SARS 2-Helix (single-chain fusion core of SARS-CoV spike protein: HR1, 22-amino acid linker, HR2) (domain or fragment)” gave a stoichiometry N of 3.
